In patent US20250171549A1 (Amgen, published 2025):
Residue numbers refer to the chain shown, from its start. Names and notes keep the numbering of the source.

B1: Antibody 3.0 IgG1 (antibody, V domains shown)
VH: EVQLVESGGGLVKPGGSLRLSCAASGFIFSNAWMSWVRQAPGKGLEWVARIKRRTDGGTTDYAAPVKDRFTISRDDSKNTLFLQMNSLKTEDTAVYYCTTVTMVRGVIADYWGQGTLVTVSS
VL: EIVLTQSPGTLSLSPGERATLSCRASQSVSSGSLAWYQQKLGQAPRLLIYGASSRATGIPDRFSGSGSGTDFTLTISSLEPEDFAVYYCQQYGSSRTFGQGTKVELKR
B2: Antibody 4.0 IgG1 (antibody, V domains shown)
VH: B1 VH with A49G, R54K, D68G, F82Y, Q84L, T90I, T100V, M103L, V107I, A109F
VL: B1 VL with R18S, A25V, G32S, S33Q, L41P, S78R, S94N, L106I
B3: Antibody 6.0 IgG1 (antibody, V domains shown)
VH: QVQLVESGGGVVQPGRSLRLSCEASGFTFSSYVMHWVRQAPGKGLEWVSVISYDGSSQYYTDSVKGRFTISRDNSKNTLNLQMNSLRAEDTAVYYCVRGRLATAILFDYWGQGTLVTVSS
VL: DILMTQTPLSLSVTPGQPASISCKSSQSLLYSDGKTYLFWYLQRPGQPPQLLIYEVSNRFSGVPDRFSGSGSGTDFTLKISRVEAEDVGIYYCMQSIKLPLTFGGGTKVEIKR
B4: Antibody 5.0 IgG1 (antibody, V domains shown)
VH: QVQLVESGGGVVQPGRSLRLSCAASGFTFSSYGMHWVRQAPGKGLEWVAVISYDGSNKYYADSVKGRFTISRDNSKNTLYLQMNSLRAEDTAVYYCARGRYFDWFLFDYWGQGTLVTVSS
VL: B3 VL with I2T, L3V, Y31H, R44K, Y54S, I90F, I97L, K98R
B5: Antibody 2.1 IgG1 (LC: F2I_P51S_H53Q_L103V_N148K, HC: K87N_S94N_V98A)(LC: Y25A_S26A, HC: A71I_D72R) (antibody, V domains shown)
VH: QVQLVESGGGVVQPGRSLRLSCAASGFTFSNYGMHWVRQAPGKGLEWVAVISYDGSNKFYIRSVKGRFTISRDNSKNTLYLQMNSLRAEDTAVYYCARAGGIGRFDYWGQGTLVTVSS
VL: B3 VL with L3V, S25A, S26A, Y31H, R44K, P48S, I90V, S96T, I97L
B6: Antibody 6.1 IgG1 (VH: S67R_A114S_I134P, VL: F71L)_huIgG1z mAb (antibody, V domains shown)
VH: B3 VH with S57R, A104S, I105P
VL: B3 VL with F60L
B7: Antibody 5.4 IgG1 (VH: G40A, VL: S57Y_E58L_V67T_F103V)_huIgG1z mAb (antibody, V domains shown)
VH: B4 VH with G33A
VL: B3 VL with I2T, L3V, Y31H, R44K, E55L, V56T, I90V, I97L, K98R
B8: Antibody 6.2 IgG1 (VH: S67R_Q68A_L135K_F136L, VL: S109T_I110L)_huIgG1z mAb (antibody, V domains shown)
VH: B3 VH with S57R, Q58A, L106K, F107L
VL: B3 VL with S96T, I97L
B9: Antibody 5.1 IgG1 (VH: F134T, VL: S34R_S57Y_F103V)_huIgG1z mAb (antibody, V domains shown)
VH: B4 VH with F105T
VL: B3 VL with I2T, L3V, Y31H, S32R, R44K, I90V, I97L, K98R
B10: Antibody 5.5 IgG1 (VH: G40P_M41V, VL: S57Y_E58L_V67T_F103V)_huIgG1z mAb (antibody, V domains shown)
VH: B4 VH with G33P, M34V
VL: B3 VL with I2T, L3V, Y31H, R44K, E55L, V56T, I90V, I97L, K98R
B11: Antibody 5.2 IgG1 (VH: G40P_F134T, VL: S57Y_E58L_V67R_F103V)_huIgG1z mAb (antibody, V domains shown)
VH: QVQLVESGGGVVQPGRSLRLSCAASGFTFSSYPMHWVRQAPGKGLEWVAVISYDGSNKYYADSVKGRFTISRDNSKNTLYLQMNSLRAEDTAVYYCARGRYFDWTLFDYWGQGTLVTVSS
VL: B3 VL with I2T, L3V, Y31H, R44K, E55L, V56R, I90V, I97L, K98R
B12: Antibody 5.3 IgG1 (VH: A71S_D72R, VL: S57Y_E58L_V67S_F103V)_huIgG1z mAb (antibody, V domains shown)
VH: B4 VH with A61S, D62R
VL: B3 VL with I2T, L3V, Y31H, R44K, E55L, V56S, I90V, I97L, K98R

Each binder was assayed against T1, human CCR8 (human, UniProt P51685 1-355) (assay: cell-based or functional assay).
T1 sequence (P51685 whole entry): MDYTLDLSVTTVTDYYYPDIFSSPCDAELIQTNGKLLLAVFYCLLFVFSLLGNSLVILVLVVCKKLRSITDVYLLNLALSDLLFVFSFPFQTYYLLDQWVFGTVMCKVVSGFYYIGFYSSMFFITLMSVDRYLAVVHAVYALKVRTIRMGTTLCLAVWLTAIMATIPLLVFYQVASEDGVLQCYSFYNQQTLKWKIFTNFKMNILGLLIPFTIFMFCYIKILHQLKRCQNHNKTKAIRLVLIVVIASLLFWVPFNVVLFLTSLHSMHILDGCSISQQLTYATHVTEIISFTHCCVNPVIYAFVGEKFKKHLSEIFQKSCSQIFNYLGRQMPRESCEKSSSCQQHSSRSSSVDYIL

Percent Inhibition (IC50 nM) of CCL1-dependent chemotaxis of HUT78 cells [nM]	Binder
3.7	B1
8.4	B2
20.1	B3
13.6	B4

Biological target: T1, human CCR8
Assay: cell-based or functional assay
Remark: another data set of the same source

Binder	ADCC, Percent Non-Viable cells (EC50 pM), Donor 1 [pM]	ADCC, Percent Non-Viable cells (EC50 pM), Donor 2 [pM]	ADCC, Percent Non-Viable cells (EC50 pM), Donor 3 [pM]
B1	< 0.256	15.5	–
B2	< 0.256	218	–
B5	< 0.256	13.3	1
B3	2	37.4	–
B4	< 0.256	167	–

Biological target: T1, human CCR8
Assay: cell-based or functional assay
Remark: another data set of the same source

Binder	ADCC, Percent Non-Viable cells (EC50 pM), Donor 4 [pM]	ADCC, Percent Non-Viable cells (EC50 pM), Donor 5 [pM]	ADCC, Percent Non-Viable cells (EC50 pM), Donor 6 [pM]
B6	4.52	1.05	3.62
B7	3.43	0.889	4.62
B8	4.12	2.04	5.14
B9	3.68	0.865	4.89
B10	4.89	0.837	3.77
B11	6.2	1.01	6.11
B12	3.34	0.642	3.48
